Experimental data from paper doi:10.1101/2025.02.28.640611 (bioRxiv, 2025).

Molecular target: the molecule itself
Assay: cross-linking

B1: S. mutans ClpX with a C-terminal hexahistidine tag (enzyme)
chain: not shown
B1 was tested, and the “stoichiometry N” value was 6.
